Where two headings read alike, the source gives them in different places.
Assays:
Experiment in all cases: crystal structure
[1] = target: Teg12 (uncultured bacterium (DNA extracted directly from desert soil))
[2] = target: Teg12 (uncultured bacterium (DNA extracted directly from desert soil)); remark: listed apart in the source
[3] = target: Teg12 (uncultured bacterium (DNA extracted directly from desert soil)); remark: listed apart in the source

Measured: stoichiometry N

Teg12 (enzyme)
2: all assays above

Source: publication PMC2888265
